Measured values: patent US20250043290A1, “RNA SEQUENCES THAT INDUCE FLUORESCENCE OF SMALL MOLECULE FLUOROPHORES, MOLECULAR COMPLEXES, SENSORS, AND METHODS OF USE THEREOF” (CORNELL UNIVERSITY, priority 2021, published 2025)

How the values were obtained:
[1] = Fluorescence activation of DFHO by aptamers in vitro; type: biochemical
Description: FIG. 2A is a schematic showing the secondary structure of Squash as predicted by mFOLD (Squash: 5′-GGCUACAAGGUGAGCCCAAUAAUACGGUUUGGGUUAGGAUAGGAAGUAGAGCCGUAAACUCUCUAAGCGGUAGUC-3′ (SEQ ID NO:1)). Squash retained the main structural elements of add A-riboswitch aptamer including a 3-way junction and predicted kissing loop interactions (residues at positions 30, 31, 56, and 57, solid gray line). An additional base pair in the kissing loop between loop L2 and L3 (residues at positions 29 and 58, dotted gray line) improved fluorescence activation. […] Shown are the excitation (Ex) and emission (Em) spectra of Squash bound to DFHBI-1T and DFHO (structures shown in inset). Spectra were measured using 20 μM RNA and 2 μM of the indicated fluorogenic dye. […] Fluorescence activation was measured by incubating 200 nM dye and 10 μM RNA. By using a large excess of RNA compared to the fluorophore, it was ensured that the fluorescence observed is from 200 nM RNA-fluorophore complex. Data represent mean values±s.d. for n=3 independent experiments. The values inside the bars indicate fold activation. AU, arbitrary units. FIG. 2D is a graph showing the dissociation constant (Kd) between Squash and DFHO as measured by titration of 50 nM Squash with increasing concentration of DFHO, and fitted using a one-site saturation model. […] FIG. 2E is a bar graph showing the results of an experiment in which Squash-DFHO fluorescence was measured in buffers containing exclusively the indicated cations. […] Similar to the parental add A-riboswitch aptamer (see Lemay et al., “Folding of the Adenine Riboswitch,” Chem. Biol. 13:857-868 (2006), which is hereby incorporated by reference in its entirety), Squash-DFHO has a low magnesium requirement for fluorescence activation. […]
FIG. 6A is a bar graph showing fluorescence activation of DFHO by Squash and its precursors. Fluorescence was measured with 200 nM dye and 10 μM RNA (ex: 495 nm, em: 562 nm, except for Corn; ex: 505 nm, em: 545 nm). […] FIG. 6B is a bar graph showing fluorescence of initial hits after Round 7 of SELEX. In vitro transcribed RNAs from each hit (1 μM final) were mixed with DFHBI-1T (10 μM final) and the fluorescence was measured (ex: 452 nm, em: 503 nm, except for Broccoli; ex: 472 nm, em: 507 nm). […] FIGS. 6C-6D are bar graphs showing fluorescence measurements of the hits with DFHBI-1T after first (FIG. 6C) and second (FIG. 6D) round of directed evolution, measured as in FIG. 6B. […] FIG. 6E is a bar graph showing fluorescence measurements of hits using DFHO after the second round of directed evolution measured as in FIG. 6A. The fluorescence of the hits were normalized against Corn. […] FIG. 6F is a graph showing normalized fluorescence. […] Fluorescence was measured as in FIG. 6A. […]

[2] = Dissociation constant of RNA-fluorophore complex, titration with DFHBI-1T; type: binding; conditions: 50 nM RNA, one-site saturation model
Method: FIGS. 7A-7H provide photophysical and biophysical characterization of Squash. […] Excess RNA was used to ensure binding of nearly all fluorophore. […] Data represent mean values±s.d. for n=3 independent experiments. […] The fluorescence signal trace was fitted with a monoexponential curve to extract kobs. kobs was plotted as a function of total RNA (50 nM RNA) and fluorophore concentration. kon and koff were extracted as the slope and intercept, respectively. Squash koff (0.014±0.008 s^−1) is very similar to that of Corn (0.018±0.002 s^−1). kon for Squash-DFHO (162300±8100 M^−1 s^−1) is seven-times higher than Corn-DFHO (23000±3000 M^−1 s^−1) which could be due to the high folding of Squash. […]
Dissociation constants (Kd) for the RNA-fluorophore complexes were determined as described previously (Paige et al., “RNA Mimics of Green Fluorescent Protein,” Science 333:642-646 (2011) and Filonov et al., “Broccoli: Rapid Selection of an RNA Mimic of Green Fluorescent Protein by Fluorescence-Based Selection and Directed Evolution,” J. Am. Chem. Soc. 136: 16299-16308 (2014), which are hereby incorporated by reference in their entirety). In brief, the RNA aptamer at a fixed concentration (50 nM) was titrated with increasing fluorophore concentration and the resulting increase in fluorescence was recorded. […]

B1: Squash: fluorogenic RNA aptamer evolved from the add A-riboswitch aptamer, binds DFHBI-1T and DFHO; SEQ ID NO: 12 (SEQ ID NO: 1) (nucleic acid)
chain: AGGUGAGCCCAAUAAUACGGUUUGGGUUAGGAUAGGAAGUAGAGCCGUAAACUCUCUAAGCG
modifications: RNA, backbone not given here
In the case of B1, the “Fold activation of DFHO fluorescence” value [1] is reported as 550 fold, the “Activation of DFHO compared to Corn” value ([1]; 200 nM dye and 10 μM RNA) is reported as over 2 fold and the “Fluorescence intensity with DFHO compared to Corn” value ([1]; 10 μM RNA, 1 μM DFHO) is reported as “more than two-fold higher”. The Kd [2] was 45 nM.
